Experimental data as given in paper PMC7187366.
Like-named read-outs stand apart in the source and are kept apart here.

T1: OsPIL15 (Oryza sativa, UniProt Q0JNI9 1-637)
T1 sequence: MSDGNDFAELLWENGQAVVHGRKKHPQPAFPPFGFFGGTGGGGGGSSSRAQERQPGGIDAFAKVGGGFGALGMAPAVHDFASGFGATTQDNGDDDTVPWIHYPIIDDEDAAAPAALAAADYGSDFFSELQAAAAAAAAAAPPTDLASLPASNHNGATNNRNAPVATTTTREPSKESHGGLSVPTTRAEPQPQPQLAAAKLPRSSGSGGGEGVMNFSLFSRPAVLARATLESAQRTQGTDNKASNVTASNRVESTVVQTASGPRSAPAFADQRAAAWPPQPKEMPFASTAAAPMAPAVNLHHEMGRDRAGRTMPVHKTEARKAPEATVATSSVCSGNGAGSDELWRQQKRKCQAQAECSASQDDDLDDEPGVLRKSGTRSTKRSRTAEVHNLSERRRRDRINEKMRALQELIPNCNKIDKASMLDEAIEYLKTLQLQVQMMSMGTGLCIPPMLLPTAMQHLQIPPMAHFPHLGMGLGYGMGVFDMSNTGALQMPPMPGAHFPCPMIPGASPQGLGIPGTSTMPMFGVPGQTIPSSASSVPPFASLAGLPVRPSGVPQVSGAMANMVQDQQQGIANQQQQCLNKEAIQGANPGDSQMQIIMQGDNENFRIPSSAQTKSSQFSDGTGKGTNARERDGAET

B1: Probe Bm (mutant G-box) (dsDNA)
DNA 1: ATTTTCCTGACTTCACTATGACTTGTT
DNA 2: AACAAGTCATAGTGAAGTCAGGAAAAT
B2: Probe Am (mutant G-boxes) (dsDNA)
DNA 1: TGATCTGACTTTAAACCGGTGACTTTCGCC
DNA 2: GGCGAAAGTCACCGGTTTAAAGTCAGATCA

What was measured:
OsPIL15 [1] = biological target: T1, OsPIL15; test: competition
OsPIL15 [2] = biological target: T1, OsPIL15; test: competition; remark: listed apart in the source

Binder	binding result (OsPIL15 [1])	binding result (OsPIL15 [2])
B1	no binding	
B2		no binding
